From publication PMC9971907, “Cryo-EM analysis of V/A-ATPase intermediates reveals the transition of the ground-state structure to steady-state structures by sequential ATP binding” (The Journal of Biological Chemistry, 2023) come the findings set out here.

For this assay, the target named is T1, V/A-ATPase D subunit, Thermus thermophilus (T. thermophilus, UniProt O87880 1-223).
T1 construct: V/A-ATPase D subunit (central rotor), Thermus thermophilus; also called part of the DF rotor; DF axis
T1 sequence: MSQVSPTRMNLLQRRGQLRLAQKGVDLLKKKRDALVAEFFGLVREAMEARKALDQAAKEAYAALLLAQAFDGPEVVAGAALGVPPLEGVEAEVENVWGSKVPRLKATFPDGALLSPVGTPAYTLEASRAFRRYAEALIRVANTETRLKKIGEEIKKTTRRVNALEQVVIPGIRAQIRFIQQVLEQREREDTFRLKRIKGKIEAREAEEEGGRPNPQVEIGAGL
Put plainly: cryo-EM structure; nucleotide-free V/A-ATPase in nanodiscs, 4 uM enzyme mixed with an equal volume of x2 RB buffer (50 mM Tris-Cl pH 8.0, 100 mM KCl, 2 mM MgCl2, 5 mM PEP, 100 ug/ml PK, 20 mM ammonium sulfate) with ATP-Mg (low ATP, 60 s; or saturating ATP, 5 s or 30 s) at 25 °C; single-particle analysis, membrane domain subtracted, focused refinement of V1EG. The settings on record: both partners purified.

B1: V/A-ATPase F subunit, Thermus thermophilus (natural protein, T. thermophilus)
chain: MAVIADPETAQGFRLAGLEGYGASSAEEAQSLLETLVERGGYALVAVDEALLPDPERAVERLMRGRDLPVLLPIAGLKEAFQGHDVEGYMRELVRKTIGFDIKL
notes: V/A-ATPase F subunit (central rotor), Thermus thermophilus; also called part of the DF rotor; DF axis
Consider B1, for which the binding result is “binds”.
